Values belong to the binder of their own block, whether it stands above or below them.
What was measured:
h5β [1] = molecular target: T1, h5β (human, UniProt P09619 33-530, limits assumed); experiment: ELISA (OD450), panel '2C5 BINDING TO PDGFRβ/α CHIMERAS'; axis 'CO…ON (nM)', titrated species not stated
T1 construct: domain: domains 1-5 (read from the label); read as human PDGFRβ with all five domains

mPDGFRβ/Fc [2] = molecular target: T2, mPDGFRβ/Fc (mouse, UniProt P05622 32-530, limits assumed); experiment: blocking of PDGF-BB binding to mPDGFRβ (FIG. 6)
T2 construct: The methods say 'mPDGFRβ' for ELISA plates and the BIAcore chip; also called murine PDGFRβ; mouse PDGFRβ; not shown: Fc part; detected with a goat anti-human Fc antibody
T2 sequence (looked up): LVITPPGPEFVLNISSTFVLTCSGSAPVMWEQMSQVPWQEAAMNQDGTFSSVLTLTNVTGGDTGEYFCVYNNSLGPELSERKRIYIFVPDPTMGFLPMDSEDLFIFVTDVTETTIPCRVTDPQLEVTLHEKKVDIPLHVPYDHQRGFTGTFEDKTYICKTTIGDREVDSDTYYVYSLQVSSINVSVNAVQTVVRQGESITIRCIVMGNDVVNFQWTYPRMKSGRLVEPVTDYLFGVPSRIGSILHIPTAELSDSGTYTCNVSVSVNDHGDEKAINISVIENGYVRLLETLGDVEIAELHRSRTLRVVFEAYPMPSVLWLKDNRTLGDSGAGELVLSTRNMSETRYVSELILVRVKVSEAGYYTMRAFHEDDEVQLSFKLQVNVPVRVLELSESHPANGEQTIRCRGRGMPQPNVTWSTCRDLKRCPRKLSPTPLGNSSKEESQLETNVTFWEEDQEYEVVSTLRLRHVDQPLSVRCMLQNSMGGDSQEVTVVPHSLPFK

[3] = molecular target: T3, β1-2 (shorter version of PDGFRβ, D1D2); experiment: ELISA (OD450), panel '2C5 BINDING TO hPDGFRβ DELETIONS'; axis 'CO…ON (nM)', titrated species not stated
T3 construct: domain: D1D2

h5β [4] = molecular target: T1, h5β; experiment: as above
[5] = molecular target: T4, β1-3 (shorter version of PDGFRβ, D1D2D3); experiment: as above
T4 construct: domain: D1D2D3

[6] = molecular target: mouse PDGFRβ on cells (NIH/3T3, D122, 4T1, B16) (mouse, UniProt P05622 32-1098); experiment: cell-based or functional assay
[7] = molecular target: human PDGFRβ, cell-surface-expressed receptor on human tumor cell lines (human, UniProt P09619 33-1106); experiment: cell-based or functional assay
human PDGFRβ, cell-surface-expressed receptor on human tumor cell lines, sequence (P09619 33-1106): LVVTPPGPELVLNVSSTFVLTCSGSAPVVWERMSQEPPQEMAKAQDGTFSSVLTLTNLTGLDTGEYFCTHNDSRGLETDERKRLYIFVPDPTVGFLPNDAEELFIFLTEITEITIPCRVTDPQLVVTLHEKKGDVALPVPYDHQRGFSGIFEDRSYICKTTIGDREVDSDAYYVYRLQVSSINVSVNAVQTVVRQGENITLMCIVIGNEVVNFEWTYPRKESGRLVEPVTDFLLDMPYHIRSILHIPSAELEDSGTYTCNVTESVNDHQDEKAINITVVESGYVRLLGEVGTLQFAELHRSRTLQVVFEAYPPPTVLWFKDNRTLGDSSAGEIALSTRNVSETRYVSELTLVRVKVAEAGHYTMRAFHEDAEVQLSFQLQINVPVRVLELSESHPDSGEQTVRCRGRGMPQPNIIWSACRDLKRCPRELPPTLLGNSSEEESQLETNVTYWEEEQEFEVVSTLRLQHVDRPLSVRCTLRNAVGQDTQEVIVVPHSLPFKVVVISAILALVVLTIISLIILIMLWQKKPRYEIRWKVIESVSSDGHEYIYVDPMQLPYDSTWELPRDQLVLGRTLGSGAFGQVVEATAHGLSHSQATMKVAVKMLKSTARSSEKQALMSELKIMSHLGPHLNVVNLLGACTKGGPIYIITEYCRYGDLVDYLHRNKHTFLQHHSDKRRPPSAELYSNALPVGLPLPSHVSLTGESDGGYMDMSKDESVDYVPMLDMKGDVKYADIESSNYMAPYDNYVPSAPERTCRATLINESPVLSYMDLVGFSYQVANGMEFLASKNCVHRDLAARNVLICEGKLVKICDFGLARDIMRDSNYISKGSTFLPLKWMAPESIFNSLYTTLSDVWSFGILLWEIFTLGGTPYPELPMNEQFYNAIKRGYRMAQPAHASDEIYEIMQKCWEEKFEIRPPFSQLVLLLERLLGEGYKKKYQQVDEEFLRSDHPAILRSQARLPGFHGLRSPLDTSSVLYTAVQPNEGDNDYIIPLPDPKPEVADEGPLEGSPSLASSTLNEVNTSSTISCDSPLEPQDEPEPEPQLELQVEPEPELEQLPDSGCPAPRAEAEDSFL

[8] = molecular target: T5, human PDGFRβ (soluble recombinant protein) (human, UniProt P09619 33-530, limits assumed); experiment: blocking of PDGF-BB binding to hPDGFRβ (FIG. 6)
T5 construct: the construct is not described; also called hPDGFRβ
T5 sequence (P09619 33-530 limits assumed): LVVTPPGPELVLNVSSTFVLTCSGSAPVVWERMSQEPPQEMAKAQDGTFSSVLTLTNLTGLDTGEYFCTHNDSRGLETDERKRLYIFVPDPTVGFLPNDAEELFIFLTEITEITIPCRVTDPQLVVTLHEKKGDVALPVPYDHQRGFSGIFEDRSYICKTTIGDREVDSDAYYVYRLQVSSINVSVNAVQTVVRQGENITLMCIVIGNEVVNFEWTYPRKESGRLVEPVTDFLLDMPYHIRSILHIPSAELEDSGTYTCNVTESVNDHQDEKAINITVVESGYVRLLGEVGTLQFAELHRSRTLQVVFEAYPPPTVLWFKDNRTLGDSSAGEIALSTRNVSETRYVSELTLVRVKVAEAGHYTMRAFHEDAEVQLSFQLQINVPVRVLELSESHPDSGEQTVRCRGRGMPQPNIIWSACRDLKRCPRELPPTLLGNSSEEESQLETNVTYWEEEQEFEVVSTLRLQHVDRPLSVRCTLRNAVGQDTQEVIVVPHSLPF

mPDGFRβ/Fc [9] = molecular target: T2, mPDGFRβ/Fc; experiment: ELISA, panel 'BINDING TO mPDGFRβ'
[10] = molecular target: T5, human PDGFRβ (soluble recombinant …); experiment: ELISA, panel 'BINDING TO hPDGFRβ'
mPDGFRβ/Fc [11] = molecular target: T2, mPDGFRβ/Fc; experiment: blocking ELISA, panel 'BLOCKING PDGF-BB BINDING TO mPDGFRβ'; blocked ligand PDGF-BB
mPDGFRβ/Fc [12] = molecular target: T2, mPDGFRβ/Fc; experiment: SPR (BIAcore), mPDGFRβ immobilized
Method: Antibody affinity determination. […] Sensorgrams were obtained at each concentration and were evaluated using the program, BIA Evaluation 2.0. The affinity constant, Kd, was calculated from the ratio of dissociation rate (koff)/association rate (kₒₙ) (Lu, D. et al., 2002; Zhu, Z. et al., 1998; Loizos, N. et al., 2005).

mPDGFRβ/Fc [13] = molecular target: T2, mPDGFRβ/Fc; experiment: blocking ELISA: antibody mixed with mPDGFRβ/Fc, PDGF-BB-coated plates (FIG. 1B)
Method: (§1) Plate-bound antibodies were detected with a goat anti-human-κ antibody-HRP. […] IMC-1121 is an antibody directed against human VEGFR2. Data represent the mean±SD of triplicate samples.
(§2) Quantitative receptor binding and blocking assays. […] The plates were then incubated at RT for an additional 1 h with a goat anti-human-κ antibody-horse radish peroxidase (HRP) conjugate (Jackson ImmunoResearch, West Grove, Pa.). The plates were washed and developed as previously described (Lu, D. et al., 2002; Zhu, Z. et al., 1998). […] After washing 3 times with PBST, the plates were incubated with a goat anti-human Fc antibody-HRP conjugate (Jackson ImmunoResearch) for 1 h, and developed as described (Lu, D. et al., 2002; Zhu, Z. et al., 1998; Loizos, N. et al., 2005).

mPDGFRβ/Fc [14] = molecular target: T2, mPDGFRβ/Fc; experiment: direct binding ELISA on mPDGFRβ/Fc-coated plates (printed as IC50; FIG. 1A)
Method: as §1, §2

mPDGFRβ/Fc [15] = molecular target: T2, mPDGFRβ/Fc; experiment: blocking ELISA: Fab mixed with mPDGFRβ/Fc, PDGF-BB-coated plates (FIG. 1B)
Method: as §1, §2

mPDGFRβ/Fc [16] = molecular target: T2, mPDGFRβ/Fc; experiment: ELISA on mPDGFRβ/Fc-coated plate (1 µg/ml), detection with goat anti-human-κ antibody-HRP
Method: as §1, §2

T1 sequence (P09619 33-530 limits assumed): as above

B1: 2C5 (human anti-PDGFRβ antibody) (antibody, V domains shown)
VH: QVQLVQSGAEVKKPGSSVKVSCKASGGTFSSYAISWVRQAPGQGLEWMGRIIPILGIANYAQKFQGRVTITADKSTSTAYMELSSLRSEDTAVYYCARDMGSRNYYYFYWGQGTLVTVSS
VL: EIVLTQSPATLSLSPGERATLSCRASQSVGRYLAWYQQKPGQAPRLLIYGASNRATGIPARFSGSGSGTDFTLTISSLEPEDFAVYYCQQRSNWPLTFGGGTKVEIKR
notes: also called 2C5 antibody; anti-PDGFRβ antibody 2C5
EC50 (read off the curve) (h5β [1]): ~50 pM
IC50 (mPDGFRβ/Fc [2]): 350 pM
EC50 (read off the curve) [3]: ~100 pM
EC50 (read off the curve) (h5β [4]): ~60 pM
EC50 (read off the curve) [5]: ~70 pM
PDGFRβ phosphorylation in mouse NIH/3T3 and D122 cell lines, IC50 [6]: < 1.8 µg/mL
PDGFRβ phosphorylation in human Caki-1 tumor cells, IC50 [7]: < 1.8 µg/mL
IC50 [8]: 550 pM
EC50 (read off the curve) (mPDGFRβ/Fc [9]): ~100 pM
EC50 (read off the curve) [10]: ~100 pM

B2: 1B3 IgG (full-length human anti-mouse PDGFRβ antibody) (antibody, V domains shown)
VH: QVQLQESGGGLVKPGGSLRLSCAASGFTFSSYSMNWVRQAPGKGLEWVSSISSSSSYIYYADSVKGRFTISRDNSKNTLYLQMNSLRAEDTAVYYCAKGGRPLLVFDFWGQGTLVTVS
VL: EIVMTQSPGTLSLSPGERATLSCRASQSVSSSYLAWYQQKPGQAPRLLIYDASKRATGIPARFSGSGSGTDFTLTISTLESEDSAVYYCQQRGYWPPITFGQGTRLEIKR
notes: also called 1B3 antibody; anti-mPDGFRβ antibody 1B3
IC50 (mPDGFRβ/Fc [11]): 370 pM
Kd (mPDGFRβ/Fc [12]): 90 pM
fold increase in affinity over its Fab form (mPDGFRβ/Fc [12]): ~57 times
IC50 (mPDGFRβ/Fc [13]): 1200 pM
EC50 (read off the curve) (mPDGFRβ/Fc [9]): ~70 pM
binding result [10]: no binding (tested: about 1e-8 M)
EC50 (mPDGFRβ/Fc [14]): 340 pM

The remaining lines, values ahead:

Kd (mPDGFRβ/Fc [12]): 5100 pM
EC50 (mPDGFRβ/Fc [14]): 1300 pM
IC50 (mPDGFRβ/Fc [15]): 4100 pM
B3: 1B3 Fab (Fab, V domains shown)
VH: QVQLQESGGGLVKPGGSLRLSCAASGFTFSSYSMNWVRQAPGKGLEWVSSISSSSSYIYYADSVKGRFTISRDNSKNTLYLQMNSLRAEDTAVYYCAKGGRPLLVFDFWGQGTLVTVS
VL: EIVMTQSPGTLSLSPGERATLSCRASQSVSSSYLAWYQQKPGQAPRLLIYDASKRATGIPARFSGSGSGTDFTLTISTLESEDSAVYYCQQRGYWPPITFGQGTRLEIKR
notes: also called 1B3 Fab fragment; clone 1B3

binding result (mPDGFRβ/Fc [16]): no binding (tested: 10 nM)
B4: 1121 IgG (antibody, V domains shown)
VH: EVQLVQSGGGLVKPGGSLRLSCAASGFTFSSYSMNWVRQAPGKGLEWVSSISSSSSYIYYADSVKGRFTISRDNAKNSLYLQMNSLRAEDTAVYYCARVTDAFDIWGQGTMVTVSS
VL: DIQMTQSPSSVSASIGDRVTITCRASQGIDNWLGWYQQKPGKAPKLLIYDASNLDTGVPSRFSGSGSGTYFTLTISSLQAEDFAVYFCQQAKAFPPTFGGGTKVDIK
notes: The sheet prints '1121 IgG'; also called IMC-1121; antibody directed against human VEGFR2
